Assay in all cases: cell-based or functional assay
Experiment [1] deals with HIV-1 Env of isolate MGRM-D-013 (clade D pseudovirus) (HIV-1).
In experiment [2] the target is HIV-1 MGRM-AG-003 Env (pseudovirus) (HIV-1).
Experiment [3] addresses HIV-1 Env of isolate MGRM-D-003 (clade D pseudovirus) (HIV-1).
The target in experiment [4] is HIV-1 envelope glycoprotein (Env) of isolate MGRM-C-019 (HIV-1).
In experiment [5] the target is HIV-1 Env of isolate VLGCB3, clade B (HIV-1).
Experiment [6] deals with HIV-1 MGRM-AG-012 Env (pseudovirus) (HIV-1).
Experiment [7] has as its target HIV-1 envelope glycoprotein (Env) of isolate LAVIC_18 (HIV-1).
Experiment [8] addresses HIV-1 Env of pseudovirus MGRM-F1-017 (clade F) (HIV-1).
Experiment [9] has as its target HIV-1 isolate 94UG114 envelope glycoprotein (Env), clade D, on pseudovirus (HIV-1).
The target in experiment [10] is HIV-1 Env of isolate 93RW029 (clade A pseudovirus) (HIV-1).
Experiment [11] has as its target HIV-1 CMU02 envelope (Env) on pseudovirus (HIV-1).
Experiment [12] has as its target HIV-1 Env of isolate MGRM-A-010 (clade A pseudovirus) (HIV-1).
Experiment [13] has as its target HIV-1 Env of pseudovirus MGRM-G-013 (HIV-1).
Experiment [14] addresses HIV-1 Env of pseudovirus MGRM-F1-022 (clade F) (HIV-1).
Experiment [15] addresses HIV-1 envelope glycoprotein (Env) of isolate MGRM-C-008 (HIV-1).
Experiment [16] deals with HIV-1 envelope glycoprotein (Env) of isolate MGRM-C-020 (HIV-1).
In experiment [17] the target is HIV-1 92UG024 envelope (Env) on pseudovirus (HIV-1).
The target of experiment [18] is HIV-1 Env of isolate MGRM-A-014 (clade A pseudovirus) (HIV-1).
Experiment [19] deals with HIV-1 Env of pseudovirus MGRM-G-024 (HIV-1).
Experiment [20] deals with HIV-1 Env of isolate MGRM-A-012 (clade A pseudovirus) (HIV-1).
Experiment [21] has as its target HIV-1 Env of pseudovirus MGRM-G-016 (HIV-1).
Experiment [22] deals with HIV-1 Env of isolate PVO.4 (Acute), clade B (HIV-1).
For experiment [23], the target named is HIV-1 Env of pseudovirus MGRM-F1-008 (clade F) (HIV-1).
In experiment [24] the target is HIV-1 Env of isolate MGRM-D-016 (clade D pseudovirus) (HIV-1).
In experiment [25] the target is HIV-1 MGRM-AG-008 Env (pseudovirus) (HIV-1).
Experiment [26] addresses HIV-1 Env of isolate SC422661.8 (Acute), clade B (HIV-1).
For experiment [27], the target named is HIV-1 Env of pseudovirus MGRM-D-021 (HIV-1).
Experiment [28] deals with HIV-1 Env of pseudovirus MGRM-D-020 (HIV-1).
Experiment [29] concerns the target HIV-1 Env of pseudovirus MGRM-F1-014 (HIV-1).
Experiment [30] addresses HIV-1 Env of pseudovirus isolate APV-13 (clade B) (HIV-1).
Experiment [31] addresses HIV-1 Env of isolate MGRM-G-019 (subtype G) (HIV-1).
In experiment [32] the target is HIV-1 Env of isolate MGRM-G-016 (subtype G) (HIV-1).
Experiment [33] has as its target HIV-1 Env of isolate 92UG114 (HIV-1).
Experiment [34] deals with aMLV envelope (negative control pseudovirus) (aMLV).
Experiment [35] deals with HIV-1 Env of isolate MGRM-C-017 (subtype C), on pseudovirus (HIV-1).
The target of experiment [36] is HIV-1 Env of pseudovirus isolate 6535.3 (clade B) (HIV-1).
The target of experiment [37] is HIV-1 Env of isolate MGRM-G-013 (subtype G) (HIV-1).

What is called IC50 is the point on the concentration scale where inhibition reaches its midpoint. A lower IC50 goes with greater potency.

PGT-142 (4995_E20) (antibody), sequence (VH): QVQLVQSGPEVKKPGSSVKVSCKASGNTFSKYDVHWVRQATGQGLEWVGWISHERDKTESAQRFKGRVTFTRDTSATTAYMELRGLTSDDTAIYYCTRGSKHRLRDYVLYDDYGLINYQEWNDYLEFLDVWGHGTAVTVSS
PGT-142 (4995_E20) (antibody), sequence (VL): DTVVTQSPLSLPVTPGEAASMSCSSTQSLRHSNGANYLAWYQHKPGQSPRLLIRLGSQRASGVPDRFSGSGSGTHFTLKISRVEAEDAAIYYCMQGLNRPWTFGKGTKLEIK
PGT-143 (4980_N08) (antibody), sequence (VH): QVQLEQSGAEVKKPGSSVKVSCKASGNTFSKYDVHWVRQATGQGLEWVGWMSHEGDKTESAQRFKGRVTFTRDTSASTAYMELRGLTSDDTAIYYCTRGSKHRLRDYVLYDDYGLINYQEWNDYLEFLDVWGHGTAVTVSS
PGT-143 (4980_N08) (antibody), sequence (VL): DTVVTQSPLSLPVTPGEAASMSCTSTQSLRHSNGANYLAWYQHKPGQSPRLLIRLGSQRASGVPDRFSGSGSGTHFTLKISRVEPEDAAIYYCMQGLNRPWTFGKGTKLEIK
PGT-145 (4995_P16) (antibody), sequence (VH): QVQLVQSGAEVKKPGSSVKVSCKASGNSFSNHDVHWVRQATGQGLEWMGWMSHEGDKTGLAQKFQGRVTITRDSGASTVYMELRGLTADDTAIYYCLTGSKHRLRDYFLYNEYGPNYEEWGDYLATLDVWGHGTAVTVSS
PGT-145 (4995_P16) (antibody), sequence (VL): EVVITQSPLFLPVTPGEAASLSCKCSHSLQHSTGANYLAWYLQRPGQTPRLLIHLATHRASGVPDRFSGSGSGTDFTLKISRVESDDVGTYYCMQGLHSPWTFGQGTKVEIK
PGT-141 (4964_G22; 4993_K13) (antibody), sequence (VH): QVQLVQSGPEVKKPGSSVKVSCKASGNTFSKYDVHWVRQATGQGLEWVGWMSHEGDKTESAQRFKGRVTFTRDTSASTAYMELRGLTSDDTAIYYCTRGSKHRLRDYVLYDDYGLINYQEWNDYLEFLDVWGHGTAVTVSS
1443_C16 (PG16) (TCN-116) (antibody), sequence (VH): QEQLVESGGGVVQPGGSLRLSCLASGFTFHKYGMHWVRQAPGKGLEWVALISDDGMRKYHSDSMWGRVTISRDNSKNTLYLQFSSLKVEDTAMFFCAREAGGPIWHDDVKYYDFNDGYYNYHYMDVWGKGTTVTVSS
1443_C16 (PG16) (TCN-116) (antibody), sequence (VL): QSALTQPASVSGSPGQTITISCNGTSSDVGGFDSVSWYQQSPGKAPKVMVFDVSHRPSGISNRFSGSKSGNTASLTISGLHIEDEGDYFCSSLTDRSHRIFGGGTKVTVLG

Take 4E10 (antibody): the IC50, pseudovirus neutralization in experiment [1] stood at 5.38 µg/mL; in [3] it was 2.49 µg/mL; in experiment [24], 15.4 µg/mL. The IC50 (µg/ml), pseudovirus neutralization in experiment [2] is 0.64 µg/mL; in experiment [4], 3.49 µg/mL; in experiment [5], 5.76 µg/mL; in [6] it was 0.86 µg/mL; in experiment [7], greater than 50 µg/mL; in [9], 9.72 µg/mL. In addition, the IC50 (µg/ml), pseudovirus neutralization was determined as 15.5 µg/mL in [10]; 14.4 µg/mL in experiment [12]; 1.15 µg/mL in experiment [13]; 2.97 µg/mL in experiment [15]; 2.8 µg/mL in experiment [16]; 1.74 µg/mL in experiment [18]. The IC50 (µg/ml), pseudovirus neutralization in [19] came out at 1.57 µg/mL; in [20], 4.27 µg/mL; in experiment [21], 1.02 µg/mL; in [22] it was 18.3 µg/mL; in experiment [25], 1.48 µg/mL; in experiment [26], 6.35 µg/mL. For the same substance, the IC50 turned out to be 4.92 µg/mL in experiment [8], 1.01 µg/mL in [14] and 2.75 µg/mL in experiment [23]. Moreover, the values for the neutralization IC50 in experiment [11] and in experiment [17] were 0.59 µg/mL and 1.32 µg/mL, respectively.

Regarding PGT-142 (4995_E20) (antibody), the IC50, pseudovirus neutralization in [27] is greater than 50 µg/mL; in experiment [28] it was greater than 50 µg/mL; in experiment [29], 0.001 µg/mL.

For b12 (antibody), the figures for the IC50, pseudovirus neutralization in [1], in experiment [3] and in experiment [24] were greater than 50 µg/mL, greater than 50 µg/mL and 1.12 µg/mL, respectively. Besides, the IC50 (µg/ml), pseudovirus neutralization is greater than 50 µg/mL in [2]; greater than 50 µg/mL in experiment [4]; 0.15 µg/mL in [5]; 10.4 µg/mL in [6]; greater than 50 µg/mL in [7]; greater than 50 µg/mL in experiment [9]. In addition, the IC50 (µg/ml), pseudovirus neutralization in experiment [10] is greater than 50 µg/mL; in experiment [12] it was greater than 50 µg/mL; in [13] it was greater than 50 µg/mL; in experiment [15], 1.51 µg/mL; in experiment [16] it was greater than 50 µg/mL; in [18] it was greater than 50 µg/mL. Besides, the IC50 (µg/ml), pseudovirus neutralization is 2.38 µg/mL in experiment [19]; greater than 50 µg/mL in [20]; greater than 50 µg/mL in experiment [21]; greater than 50 µg/mL in experiment [22]; greater than 50 µg/mL in experiment [25]; 6.11 µg/mL in experiment [26]. The IC50 in experiment [8], in experiment [14] and in [23] was greater than 50 µg/mL in each case. Moreover, the neutralization IC50 in experiment [11] worked out at 4.25 µg/mL; in experiment [17], 49.1 µg/mL.

With 1443_C16 (PG16) (TCN-116) (antibody), the results for the IC50, pseudovirus neutralization in experiment [1], in experiment [3] and in experiment [24] were 0.11 µg/mL, 0.01 µg/mL and 0.02 µg/mL, respectively. In addition, the IC50 (µg/ml), pseudovirus neutralization in experiment [2] is greater than 50 µg/mL; in experiment [4], 0.002 µg/mL; in experiment [5] it was 0.4 µg/mL; in experiment [6], 25.1 µg/mL; in experiment [7], 0.02 µg/mL; in experiment [9], greater than 50 µg/mL. For the same substance, the IC50 (µg/ml), pseudovirus neutralization in experiment [10] is 3.83 µg/mL; in [12], 0.004 µg/mL; in experiment [13], greater than 50 µg/mL; in experiment [15], greater than 50 µg/mL; in experiment [16], greater than 50 µg/mL; in experiment [18], 20.3 µg/mL. Further, the IC50 (µg/ml), pseudovirus neutralization in experiment [19] came out at 0.01 µg/mL; in experiment [20] it was 20.7 µg/mL; in experiment [21], 11.3 µg/mL; in experiment [22], 5.43 µg/mL; in [25], 0.002 µg/mL; in [26], 1.13 µg/mL. In addition, the IC50 is greater than 50 µg/mL in [8], 0.08 µg/mL in experiment [14] and greater than 50 µg/mL in experiment [23]. Moreover, the neutralization IC50 in experiment [11] and in experiment [17] was greater than 50 µg/mL each time.

On to PGT-145 (4995_P16) (antibody), for which the results for the IC50, pseudovirus neutralization in experiment [27], in experiment [28] and in experiment [29] were greater than 50 µg/mL, 10 µg/mL and 0.009 µg/mL, respectively.

As for PGT-143 (4980_N08) (antibody), the results for the IC50, pseudovirus neutralization in experiment [27], in [28] and in experiment [29] were greater than 50 µg/mL, greater than 50 µg/mL and 0.001 µg/mL, respectively.

In the case of 1495_C14 (PGC14) (antibody), the IC50, pseudovirus neutralization in experiment [1], in [3] and in experiment [24] was greater than 50 µg/mL in each case. Further, the IC50 (µg/ml), pseudovirus neutralization in experiment [2] was greater than 50 µg/mL; in [4] it was 12 µg/mL; in experiment [5], 21 µg/mL; in experiment [6] it was greater than 50 µg/mL; in experiment [7] it was greater than 50 µg/mL; in experiment [9], greater than 50 µg/mL. The IC50 (µg/ml), pseudovirus neutralization in experiment [10] is 42 µg/mL; in experiment [12], greater than 50 µg/mL; in experiment [13], greater than 50 µg/mL; in experiment [15], greater than 50 µg/mL; in experiment [16], greater than 50 µg/mL; in [18], greater than 50 µg/mL. Moreover, the IC50 (µg/ml), pseudovirus neutralization was greater than 50 µg/mL in experiment [19]; greater than 50 µg/mL in experiment [20]; greater than 50 µg/mL in [21]; greater than 50 µg/mL in experiment [22]; 45 µg/mL in experiment [25]; greater than 50 µg/mL in experiment [26]. The half-inhibitory concentration (IC50) in [8], in experiment [14] and in experiment [23] was greater than 50 µg/mL throughout. The neutralization IC50 in experiment [11] and in experiment [17] was greater than 50 µg/mL in each case.

As for VRC01 (antibody), the IC50, pseudovirus neutralization in experiment [27] amounted to 33.4 µg/mL; in experiment [30] it was 0.657 µg/mL; in experiment [28] it was 0.192 µg/mL; in experiment [29], 0.056 µg/mL; in [36], 1.75 µg/mL. Also, the IC50 (µg/mL), pseudovirus neutralization was 0.06 µg/mL in [31]; 0.063 µg/mL in [32]; 0.33 µg/mL in [33]; greater than 50 µg/mL in experiment [34]; 0.553 µg/mL in experiment [37]. The IC50, single-round pseudovirus neutralization in [35] stood at 0.366 µg/mL.

As to PGT-141 (4964_G22; 4993_K13) (antibody), the IC50, pseudovirus neutralization in experiment [27] is greater than 50 µg/mL; in experiment [28], greater than 50 µg/mL; in experiment [29], 0.001 µg/mL.
